In PMC3349339 (Journal of Molecular Biology, 2012):

Assays:
wtDR1 = assay: Fluorescence polarization dissociation measurements, wtDR1; type: binding, human; details: FP peptide release, 37 °C, pH 5
[1] = target: β81mut (HLA-DR1 with His→Asn substitution at position β81) (Homo sapiens, UniProt P01903+P01911, A100R/D57E/F55L/F60I/F76Y/H110N/I96L/L162R/M171V/P40L/Q125E/R42F/V115G/Y59C); assay: Fluorescence polarization dissociation measurements, β81mut; type: binding; details: FP peptide release, 37 °C, pH 5
[2] = target: HLA-DR1 with a His→Asn substitution at position β81 (human); assay: fluorescence polarisation
[3] = target: HLA-DR1 with a His→Asn substitution at position β81 (human)

Row | Substance | Stable binding allowing off-rate measurements, wtDR1 (wtDR1) | Stable binding allowing off-rate measurements, β81mut [1] | t1/2 [2] | Kd [3]
1 | P2,3 SD: HA306-319-derived peptide substituted at P2 and P3 (GPKYSDQNTLKLAT) | could bind in a stable fashion | this was not possible | – | –
2 | P3,10 DG: HA306-319-derived peptide substituted at P3 and P10 (GPKYVDQNTLKLGT) | could bind in a stable fashion | this was not possible | – | –
3 | fluorescein-labelled HA_(306-319) peptide | – | – | 77.3 h | –
4 | HA_(306-319) peptide | – | – | – | 50.6 nM
